In PMC6035183, “ETS transcription factors induce a unique UV damage signature that drives recurrent mutagenesis in melanoma”:

T1: ETS1 (ETS1ΔN280) (UniProt P27577 280-440)
T1 sequence: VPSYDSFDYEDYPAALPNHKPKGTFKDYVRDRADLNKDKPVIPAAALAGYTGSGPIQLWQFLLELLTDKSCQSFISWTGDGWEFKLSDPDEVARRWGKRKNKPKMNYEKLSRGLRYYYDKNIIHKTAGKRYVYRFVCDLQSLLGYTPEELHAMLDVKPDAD


Experiments:
[1] = biological target: T1, ETS1 (ETS1ΔN280); experiment: EMSA; 4 pmol DNA, 0-32 pmol ETS1; two shifted bands at low ETS1; 25 mM Tris-Cl pH 7.9, 10% glycerol, 6 mM MgCl2, 0.5 mM EDTA, 60 mM KCl, 0.5 mM DTT, 200 ug/ml BSA; 40 ul, 40 min on ice; 8% native PAGE; conditions: protein: recombinant; label: 5'-32P on S14 (TTCC strand); blunt
[2] = biological target: T1, ETS1 (ETS1ΔN280); experiment: EMSA; 4 pmol DNA, 0-32 pmol ETS1; multiple shifted bands; 25 mM Tris-Cl pH 7.9, 10% glycerol, 6 mM MgCl2, 0.5 mM EDTA, 60 mM KCl, 0.5 mM DTT, 200 ug/ml BSA; 40 ul, 40 min on ice; 8% native PAGE; conditions: protein: recombinant; label: 5'-32P on S15 (TTCC strand); blunt

Binder | binding result [1] | binding result [2]
RPL13A promoter fragment (dsDNA, 5'-biotin on S13) DNA 1: GTCCAATCCGGACATTCTTCCGGTTGGACC DNA 2: GGTCCAACCGGAAGAATGTCCGGATTGGAC | binds | –
SDHD promoter fragment (dsDNA, 5'-biotin on S16) DNA 1: CTCGACTTCCGGTTCACCCAGCATTTCCTCTTCCCTGTT DNA 2: AACAGGGAAGAGGAAATGCTGGGTGAACCGGAAGTCGAG | – | binds
